The data set concerns the molecule itself. Kind of data set: size-exclusion chromatography, titration of apoSFP with biliverdin; self-association of subunits (apo protein is monomeric, no dimer fraction seen).

This note sets out measurements from patent US20210347833A1 (WISYS TECHNOLOGY FOUNDATION, published 2021).

B1: Recombinant wild-type Sandercyanin fluorescent protein (SFP) lacking the signal peptide (other)
chain: MFIKPGRCPKPAVQEDFDAARYLGVWYDIQRLPNKFQKGECATATYSLSPGVGFSVFNRERLANGTIKSVIGSAIAEDPCEPAKLQFFHENAAPVPYWVLSTDYDNYALVYSCINLGASHAAYASIVSRQPTLPEETIKKLQGTMSSFGVGVDTLLTTNQDAAYCSAMNQ
notes: the apo protein is a monomer in solution; also called wtSFP; wild-type SFP
On to B1, for which the binding result is “binds”.
